B1: DnaA (native, wild-type) (natural protein, Escherichia coli, UniProt P03004 1-467, looked up)
chain: MSLSLWQQCLARLQDELPATEFSMWIRPLQAELSDNTLALYAPNRFVLDWVRDKYLNNINGLLTSFCGADAPQLRFEVGTKPVTQTPQAAVTSNVAAPAQVAQTQPQRAAPSTRSGWDNVPAPAEPTYRSNVNVKHTFDNFVEGKSNQLARAAARQVADNPGGAYNPLFLYGGTGLGKTHLLHAVGNGIMARKPNAKVVYMHSERFVQDMVKALQNNAIEEFKRYYRSVDALLIDDIQFFANKERSQEEFFHTFNALLEGNQQIILTSDRYPKEINGVEDRLKSRFGWGLTVAIEPPELETRVAILMKKADENDIRLPGEVAFFIAKRLRSNVRELEGALNRVIANANFTGRAITIDFVREALRDLLALQEKLVTIDNIQKTVAEYYKIKVADLLSKRRSRSVARPRQMAMALAKELTNHSLPEIGDAFGGRDHTTVLHACRKIEQLREESHDIKEDFSNLIRTLSS
notes: DnaA, chromosomal replication initiator of Escherichia coli; called native, intact, wild-type DnaA; Untagged; In the bio-oriC pull-downs it stood as DnaA complexes (multimers) formed on a biotin-tagged oriC DNA fragment; also called native DnaA; wild-type DnaA (WT); source: purified

Experiments:
Details in all cases: both partners purified
DnaB-DnaC complex = molecular target: T1, DnaB-DnaC complex (Escherichia coli, UniProt P0ACB0 1-471; P0AEF0 1-245); assay: pull-down; DnaA (7.5 pmol) and bio-oriC (100 fmol) with DnaB-DnaC complex (7.5 pmol each) 5 min on ice, then His-YfdR for 10 min; streptavidin beads; SDS-12% PAGE, silver staining
T1 construct: DnaB replicative helicase of Escherichia coli (homohexamer); DnaC helicase loader of Escherichia coli; Formed beforehand from 7.5 pmol DnaB (as monomer) and 7.5 pmol DnaC; also called DnaB-DnaC complexes; source: DnaB and DnaC co-incubated on ice; copies: 6 +

[1] = molecular target: T2, biotin-tagged DnaA (bio-DnaA) (Escherichia coli, UniProt P03004 1-467, biotin (biotin-tagged)); assay: pull-down; DiaA (10 pmol as monomer) with bio-DnaA (5 pmol) 5 min on ice, then purified His-YfdR for 10 min; streptavidin beads; SDS-PAGE, silver staining
T2 construct: DnaA, chromosomal replication initiator of Escherichia coli; also called bio-DnaA (Full); source: purified, as reported (Ishida et al., 2004)
T2 sequence (looked up): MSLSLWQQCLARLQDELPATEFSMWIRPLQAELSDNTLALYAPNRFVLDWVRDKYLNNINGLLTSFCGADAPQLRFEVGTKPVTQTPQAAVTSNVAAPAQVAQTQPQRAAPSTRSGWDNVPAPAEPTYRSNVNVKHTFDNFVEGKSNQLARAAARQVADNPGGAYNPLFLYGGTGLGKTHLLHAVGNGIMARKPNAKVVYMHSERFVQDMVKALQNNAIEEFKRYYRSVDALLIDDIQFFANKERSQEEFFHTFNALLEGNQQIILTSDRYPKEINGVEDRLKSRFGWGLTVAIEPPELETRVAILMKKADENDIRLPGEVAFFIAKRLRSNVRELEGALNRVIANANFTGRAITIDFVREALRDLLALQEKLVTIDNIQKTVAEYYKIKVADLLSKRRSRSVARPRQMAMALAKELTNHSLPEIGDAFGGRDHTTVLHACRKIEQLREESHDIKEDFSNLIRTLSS

DnaA (native, wild-type) [2] = molecular target: B1; assay: pull-down; His-YfdR (10 pmol) with native DnaA or DnaA F46A in buffer R with 20 mM imidazole (20 uL; 2 mM ATP), on ice; Co2+ magnetic beads (Dynabeads); wash with 100 mM KCl and 50 mM imidazole; SDS-13% PAGE, silver staining; bead-bound DnaA subtracted
DnaA (native, wild-type) [3] = molecular target: B1; assay: pull-down; DnaA (7.5 pmol) and bio-oriC (100 fmol) with His-DiaA (10 pmol as monomer) 5 min on ice, then His-YfdR for 10 min; streptavidin beads; SDS-15% PAGE, silver staining
[4] = molecular target: T2, biotin-tagged DnaA (bio-DnaA); assay: pull-down; bio-DnaA (5 pmol) first incubated with purified DiaA (10 pmol), then with protein extracts of cells carrying pQRST or pBAD18; streptavidin beads; SDS-PAGE, silver staining

T1 sequence (P0ACB0 whole entry, chain 1 of 2): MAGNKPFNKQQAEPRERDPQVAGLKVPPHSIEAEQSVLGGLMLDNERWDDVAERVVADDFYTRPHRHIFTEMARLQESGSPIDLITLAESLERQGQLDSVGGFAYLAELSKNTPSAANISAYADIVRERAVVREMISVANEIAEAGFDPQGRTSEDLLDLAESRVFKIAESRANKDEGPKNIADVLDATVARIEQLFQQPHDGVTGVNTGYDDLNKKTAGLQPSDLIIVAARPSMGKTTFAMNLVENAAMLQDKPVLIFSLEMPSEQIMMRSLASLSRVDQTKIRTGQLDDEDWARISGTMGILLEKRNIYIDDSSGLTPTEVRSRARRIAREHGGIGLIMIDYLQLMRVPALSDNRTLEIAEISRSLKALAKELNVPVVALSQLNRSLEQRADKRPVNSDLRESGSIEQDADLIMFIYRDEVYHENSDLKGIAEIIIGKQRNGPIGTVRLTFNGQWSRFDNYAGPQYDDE
T1 sequence (P0AEF0 whole entry, chain 2 of 2): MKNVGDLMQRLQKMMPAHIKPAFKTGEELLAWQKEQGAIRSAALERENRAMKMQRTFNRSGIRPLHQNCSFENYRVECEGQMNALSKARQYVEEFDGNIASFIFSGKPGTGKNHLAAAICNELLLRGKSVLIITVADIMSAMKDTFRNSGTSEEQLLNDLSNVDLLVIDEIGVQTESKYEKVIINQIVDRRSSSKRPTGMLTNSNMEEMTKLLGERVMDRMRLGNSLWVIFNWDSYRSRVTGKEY

Q: Does B1 bind (DnaB-DnaC complex)?
A: Result: binds

B2: His-tagged YfdR (His-YfdR) (natural protein, Escherichia coli, UniProt P76514 1-178, looked up)
chain: MSFIKTFSGKHFYYDKINKDDIVINDIAVSLSNICRFAGHLSHFYSVAQHAVLCSQLVPQEFAFEALMHDATEAYCQDIPAPLKRLLPDYKRMEEKIDAVIREKYGLPPVMSTPVKYADLIMLATERRDLGLDDGSFWPVLEGIPATEMFNVIPLAPGHAYGMFMERFNDLSELRKCA
notes: YfdR of the cryptic prophage CPS-53 of Escherichia coli; amplified from pSSP with a forward primer that begins at the ATG of yfdR (nogu10) and nogu11, cloned NheI-EcoRI into pBAD/HisB; also called purified YfdR; source: E. coli MC1061 carrying pYfdR (pBAD/HisB), arabinose-induced, purified (Ni-NTA agarose)
Q: What does the source list for B2?
A: binding result [1]: binds; binding result (DnaA (native, wild-type) [2]): binds

B3: DiaA (natural protein, Escherichia coli, UniProt P66817 1-196, looked up)
chain: MQERIKACFTESIQTQIAAAEALPDAISRAAMTLVQSLLNGNKILCCGNGTSAANAQHFAASMINRFETERPSLPAIALNTDNVVLTAIANDRLHDEVYAKQVRALGHAGDVLLAISTRGNSRDIVKAVEAAVTRDMTIVALTGYDGGELAGLLGPQDVEIRIPSHRSARIQEMHMLTVNCLCDLIDNTLFPHQDD
notes: results and legends say only DiaA; also called His-DiaA; purified DiaA; source: purified
Q: Does B3 bind (DnaA (native, wild-type) [3])?
A: Result: binds

Q: Does B3 bind [4]?
A: Result: binds
